Reference: patent publication US20240076387A1 (published 2024)
Where “and” joins values, the source holds several entries; their conditions need not be identical. Equal entries are not always repeated. Blank lines part the entries; values can stand above or below the binder they belong to.

Legend:
[1] = target: T1, Flt-1 antigen (species not stated) (Homo sapiens (Human), UniProt P17948 27-656); assay: Biacore
T1 construct: also called sFlt-1; soluble Flt-1

[2] = target: T1, Flt-1 antigen (species not stated at …); assay: surface plasmon resonance (Biacore), EXP 1
[3] = target: T1, Flt-1 antigen (species not stated at …); assay: off-rate of Fabs, method not stated
[4] = target: T1, Flt-1 antigen (species not stated at …); assay: kinetics, method not stated (Table 7)
[5] = target: T1, Flt-1 antigen (species not stated at …); assay: kinetics of Table 7; 'increased' is said of a higher affinity (lower KD)
[6] = target: T1, Flt-1 antigen (species not stated at …); assay: surface plasmon resonance (Biacore), EXP 2
[7] = target: T1, Flt-1 antigen (species not stated at …); assay: surface plasmon resonance (Biacore); reference not named

T1 sequence (P17948 other isoform, or with tags, fused parts or gaps limits assumed, form in doubt): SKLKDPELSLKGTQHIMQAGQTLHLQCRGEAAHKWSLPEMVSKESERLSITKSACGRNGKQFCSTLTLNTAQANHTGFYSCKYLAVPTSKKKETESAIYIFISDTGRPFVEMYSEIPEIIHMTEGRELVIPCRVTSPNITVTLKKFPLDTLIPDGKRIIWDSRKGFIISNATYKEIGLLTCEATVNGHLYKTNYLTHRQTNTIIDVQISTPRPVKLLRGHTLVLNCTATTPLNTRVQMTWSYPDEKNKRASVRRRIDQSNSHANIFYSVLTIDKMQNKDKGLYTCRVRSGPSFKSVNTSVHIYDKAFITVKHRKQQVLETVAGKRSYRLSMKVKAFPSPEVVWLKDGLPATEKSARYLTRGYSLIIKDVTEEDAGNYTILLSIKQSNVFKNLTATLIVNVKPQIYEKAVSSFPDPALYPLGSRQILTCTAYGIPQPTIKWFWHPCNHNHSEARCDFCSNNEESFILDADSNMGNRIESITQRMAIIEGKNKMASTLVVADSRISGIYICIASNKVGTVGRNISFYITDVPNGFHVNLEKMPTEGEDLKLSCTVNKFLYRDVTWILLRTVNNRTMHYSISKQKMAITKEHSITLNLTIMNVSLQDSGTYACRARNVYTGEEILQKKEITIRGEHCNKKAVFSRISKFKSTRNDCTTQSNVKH

B1: 27H9 (antibody, human IgG1, lambda, V domains shown)
VH: EVQLLESGGGLVQPGGSLRLSCAASGFTFRDYSMSWVRQAPGKGLEWVSAISWNGDSTYYAESAKGRFTISRDNSKNTLYLQMNSLRAEDTAVYYCAKSWATPIESLYYYGSDYWGQGTLVTVSS
VL: SYELTQPLSVSVALRQTARITCGGNNIGSQTAQWYQQKPGQAPVLVIYANNRRPSGIPERFSGSKSGNTATLTISRAQAEDEADYYCQVWDESTQAIVFGGGTKLTVLG
notes: also called 27H9 WT; 27H9 WT 23/07
Kd [1]: 0.26 nM
koff [1]: 8.4e-05 s⁻¹
kon [1]: 330000 M⁻¹ s⁻¹
Kd [2]: 0.23 nM and 0.26 nM
koff [2]: 7.9e-05 s⁻¹ and 8.4e-05 s⁻¹
kon [2]: 350000 M⁻¹ s⁻¹ and 330000 M⁻¹ s⁻¹

B2: 27H9 Fab (Fab, V domains shown)
VH: EVQLLESGGGLVQPGGSLRLSCAASGFTFRDYSMSWVRQAPGKGLEWVSAISWNGDSTYYAESAKGRFTISRDNSKNTLYLQMNSLRAEDTAVYYCAKSWATPIESLYYYGSDYWGQGTLVTVSS
VL: SYELTQPLSVSVALRQTARITCGGNNIGSQTAQWYQQKPGQAPVLVIYANNRRPSGIPERFSGSKSGNTATLTISRAQAEDEADYYCQVWDESTQAIVFGGGTKLTVL
notes: also called 27H9_VH
kd IMPROVEMENT (against parent 21B3) [3]: 1.12

B3: 21B3 (antibody, V domains shown)
VH: ELQLVESGGGLVQPGGSLRLSCAASGFTFRDYSMSWVRQAPGKGLEWVSAISWNGDSTYYAESMKGRFTISRDNAKNTLYLQMNSLKSEDTAVYYCAKSWATPIESLYYYGMDYWGKGTLVTVSS
VL: SYELTQSPSVSVALRQTAKITCGGNNIGSQTAQWYQQKPGQAPVLVIYANNRRPSGIPERFSGSKSGNTATLTISGAQAEDEADYYCQVWDGSTQAIVFGGGTHLTVL
notes: also called 21B3 WT; antibody 21B3
Kd [4]: 0.0848 nM
koff [4]: 4.73e-05 s⁻¹
kon [4]: 558000 M⁻¹ s⁻¹
fold change of KD against parent antibody 13B4 [5]: ~5 fold
Kd [1]: 0.32 nM
koff [1]: 0.00017 s⁻¹
kon [1]: 540000 M⁻¹ s⁻¹
Kd [6]: 0.32 nM
koff [6]: 0.00017 s⁻¹
kon [6]: 540000 M⁻¹ s⁻¹

B4: 21B3 AAA (antibody, human IgG1, lambda, V domains shown)
VH: ELQLVESGGGLVQPGGSLRLSCAASGFTFRDYSMSWVRQAPGKGLEWVSAISWNGDSTYYAESMKGRFTISRDNAKNTLYLQMNSLKSEDTAVYYCAKSWATPIESLYYYGMDYWGKGTLVTVSS
VL: SYELTQSPSVSVALRQTAKITCGGNNIGSQTAQWYQQKPGQAPVLVIYANNRRPSGIPERFSGSKSGNTATLTISGAQAEDEADYYCQVWDGSTQAIVFGGGTHLTVLG
notes: AAA mutation in the Fc region
Kd [6]: 0.21 nM
koff [6]: 0.00011 s⁻¹
kon [6]: 520000 M⁻¹ s⁻¹

B5: 25D4 Fab (Fab, V domains shown)
VH: EVQLLESGGGLVQPGGSLRLSCAASGFTFRDYSASWVRQAPGKGLEWVSAISWNGDSTYYAESVKGRFTISRDNAKNTLYLQMNSLRAEDTAVYYCAKSWATPIESLYYYGSDYWGQGTLVTVSS
VL: SYELTQPLSVSVALGQTARITCGGNNIGSQTAQWYQQKPGQAPVLVIYANNRRPSGIPERFSGSKSGNTATLTISGAQAEDEADYYCQVWAASTQAIVFGGGTKLTVL
notes: also called 25D4_VH
kd IMPROVEMENT (against parent 21B3) [3]: 0.94

B7: 25F11 Fab (Fab, V domains shown)
VH: EVQLLESGGGLVQPGGSLRLSCAASGFTFRDYSMSWVRQAPGKGLEWVSAISWNGDSTYYAESAKGRFTISRDNSKNTLYLQMNSLRAEDTAVYYCAKSWATPIESLYYYGSDYWGQGTLVTVSS
VL: SYELTQPLSVSVALRQAARITCGGNNIGSQTAQWYQQKPGQAPVLVIYANNRRPSGIPERFSGSKSGNTATLTISRAQAEDEADYYCQVWEASTQAIVFGGGTKLTVL
notes: also called 25F11_VH
kd IMPROVEMENT (against parent 21B3) [3]: 1

B8: 27G9 Fab (Fab, V domains shown)
VH: EVQLLESGGGLVQPGGSLRLSCAASGFTFRDYSASWVRQAPGKGLEWVSAISWSGDSTYYAESLKGRFTISRDNSKNTLYLQMNSLRAEDTAVYYCAKSWATPIESLYYYGSDYWGKGTLVTVSS
VL: SYELTQPLSVSVALGQTAKITCGGNNIGSQTAQWYQQKPGQAPVLVIYANNRRPSGIPERFSGSKSGNTATLTISRAQAEDEADYYCQVWEESTQAIVFGGGTHLTVL
notes: also called 27G9_VH
kd IMPROVEMENT (against parent 21B3) [3]: 1.3

B13: 25G9 Fab (Fab, V domains shown)
VH: EVQLLESGGGLVQPGGSLRLSCAASGFTFRDYSMSWVRQAPGKGLEWVSAITWSGDSTYYAESVKGRFTISRDNSKNTLYLQMNSLRAEDTAVYYCAKSWATPIESLYYYGTDYWGKGTLVTVSS
VL: SYELTQPLSVSVALRQAARITCGGNNIGSQTAQWYQQKPGQAPVLVIYANNRRPSGIPERFSGSKSGNTATLTISRAQAEDEADYYCQVWDDSTQAIVFGGGTKLTVL
notes: also called 25G9_VH
kd IMPROVEMENT (against parent 21B3) [3]: 0.97

Now from value to binder:

Kd [6]: 0.51 nM
koff [6]: 0.00015 s⁻¹
kon [6]: 290000 M⁻¹ s⁻¹
Kd [2]: 0.39 nM
koff [2]: 0.00011 s⁻¹
kon [2]: 290000 M⁻¹ s⁻¹
B6: 27H9 NG/NA (antibody, human IgG1, lambda)
heavy: not shown
light: SYELTQPLSVSVALRQTARITCGGNNIGSQTAQWYQQKPGQAPVLVIYANNRRPSGIPERFSGSKSGNTATLTISRAQAEDEADYYCQVWDESTQAIVFGGGTKLTVLGQPKAAPSVTLFPPSSEELQANKATLVCLISDFYPGAVTVAWKADSSPVKAGVETTTPSKQSNNKYAASSYLSLTPEQWKSHRSYSCQVTHEGSTVEKTVAPTECS

kd IMPROVEMENT (against parent 21B3) [3]: 1.06
B9: 27H4 Fab (Fab, V domains shown)
VH: ELQLVESGGGLVQPGGSLRLSCAASGFTFRDYSMSWVRQAPGKGLEWVSAISWNGDSTYYAESLKGRFTISRDNAKNTLYLQMNSLRAEDTAVYYCAKSWATPIESLYYYGSDYWGQGTLVTVSS
VL: SYELTQPLSVSVALGQTARITCGGNNIGSQTAQWYQQKPGQAPVLVIYANNRRPSGIPERFSGSKSGNTATLTISRAQAEDEADYYCQVWEDSTQAIVFGGGTKLTVL
notes: also called 27H4_VH

fold reduced binding affinity [7]: ~2 fold
Kd [6]: 0.51 nM
koff [6]: 0.00015 s⁻¹
kon [6]: 290000 M⁻¹ s⁻¹
B10: 27H9 NG/NA AAA (antibody, human IgG1, lambda)
heavy: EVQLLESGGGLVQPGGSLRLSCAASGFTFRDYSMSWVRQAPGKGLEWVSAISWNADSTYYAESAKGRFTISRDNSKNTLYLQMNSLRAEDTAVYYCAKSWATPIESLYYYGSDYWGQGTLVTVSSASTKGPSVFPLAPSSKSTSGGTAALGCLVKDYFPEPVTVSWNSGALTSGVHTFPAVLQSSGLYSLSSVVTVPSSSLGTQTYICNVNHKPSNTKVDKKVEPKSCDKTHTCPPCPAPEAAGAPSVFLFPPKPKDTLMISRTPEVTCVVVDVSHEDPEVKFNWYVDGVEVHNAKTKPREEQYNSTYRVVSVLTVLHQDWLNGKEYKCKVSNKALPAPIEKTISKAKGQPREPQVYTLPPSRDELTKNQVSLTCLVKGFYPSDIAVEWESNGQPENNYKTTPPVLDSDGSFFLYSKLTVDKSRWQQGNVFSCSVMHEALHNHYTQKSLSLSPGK
light: SYELTQPLSVSVALRQTARITCGGNNIGSQTAQWYQQKPGQAPVLVIYANNRRPSGIPERFSGSKSGNTATLTISRAQAEDEADYYCQVWDESTQAIVFGGGTKLTVLGQPKAAPSVTLFPPSSEELQANKATLVCLISDFYPGAVTVAWKADSSPVKAGVETTTPSKQSNNKYAASSYLSLTPEQWKSHRSYSCQVTHEGSTVEKTVAPTECS
notes: also called 27H9_NA_+_AAA; 27H9 NA + AAA

Kd [1]: 0.16 nM
koff [1]: 0.00014 s⁻¹
kon [1]: 910000 M⁻¹ s⁻¹
B11: 27H6 (antibody, human IgG1, lambda, V domains shown)
VH: ELQLVESGGGLVQPGGSLRLSCAASGFTFSDYSASWVRQAPGKGLEWVSAISWSGDSTYYAESVKGRFTIFRDNSKNTLYLQMNSLRAEDTAVYYCAKSWATPIESLYYYGSDYWGQGTLVTVSS
VL: SYELTQPLSVSVALRQAAKITCGGNNIGSQTAQWYQQKPGQAPVLVIYANNRRPSGIPERFSGSKSGNTATLTISRAQAGDEADYYCQVWDGSTQAIVFGGGTKLTVLG
notes: also called 27H6 WT; antibody 27H6

Kd [2]: 0.36 nM
koff [2]: 0.00013 s⁻¹
kon [2]: 370000 M⁻¹ s⁻¹
B12: 27H9 NG/QG (antibody, human IgG1, lambda, V domains shown)
VH: EVQLLESGGGLVQPGGSLRLSCAASGFTFRDYSMSWVRQAPGKGLEWVSAISWQGDSTYYAESAKGRFTISRDNSKNTLYLQMNSLRAEDTAVYYCAKSWATPIESLYYYGSDYWGQGTLVTVSS
VL: SYELTQPLSVSVALRQTARITCGGNNIGSQTAQWYQQKPGQAPVLVIYANNRRPSGIPERFSGSKSGNTATLTISRAQAEDEADYYCQVWDESTQAIVFGGGTKLTVLG

kd IMPROVEMENT (against parent 21B3) [3]: 0.96
B14: 27H6 Fab (Fab, V domains shown)
VH: ELQLVESGGGLVQPGGSLRLSCAASGFTFSDYSASWVRQAPGKGLEWVSAISWSGDSTYYAESVKGRFTIFRDNSKNTLYLQMNSLRAEDTAVYYCAKSWATPIESLYYYGSDYWGQGTLVTVSS
VL: SYELTQPLSVSVALRQAAKITCGGNNIGSQTAQWYQQKPGQAPVLVIYANNRRPSGIPERFSGSKSGNTATLTISRAQAGDEADYYCQVWDGSTQAIVFGGGTKLTVL
notes: also called 27H6_VH

Kd [1]: 0.25 nM
koff [1]: 8.2e-05 s⁻¹
kon [1]: 340000 M⁻¹ s⁻¹
B15: 27H4 (antibody, human IgG1, lambda, V domains shown)
VH: ELQLVESGGGLVQPGGSLRLSCAASGFTFRDYSMSWVRQAPGKGLEWVSAISWNGDSTYYAESLKGRFTISRDNAKNTLYLQMNSLRAEDTAVYYCAKSWATPIESLYYYGSDYWGQGTLVTVSS
VL: SYELTQPLSVSVALGQTARITCGGNNIGSQTAQWYQQKPGQAPVLVIYANNRRPSGIPERFSGSKSGNTATLTISRAQAEDEADYYCQVWEDSTQAIVFGGGTKLTVLG
notes: also called 27H4 WT; antibody 27H4
